# Laboratory results reported in patent publication US20140093496A1 (Chugai, published 2014).
# T1: FcγRIIa type R extracellular domain with C-terminal His tag (human, UniProt P12318 34-217)
# T1 chain: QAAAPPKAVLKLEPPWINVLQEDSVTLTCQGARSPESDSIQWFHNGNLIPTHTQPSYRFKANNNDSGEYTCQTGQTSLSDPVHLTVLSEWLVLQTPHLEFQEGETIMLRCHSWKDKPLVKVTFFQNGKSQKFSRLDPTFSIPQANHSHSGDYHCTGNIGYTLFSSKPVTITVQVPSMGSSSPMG
# T2: FcγRIIb extracellular domain with C-terminal His tag (human, UniProt P31994 43-217)
# T2 construct: extracellular domain; also called FcgRIIb; FcγRIIb extracellular region; not shown: His tag at the C terminus
# T2 sequence (looked up): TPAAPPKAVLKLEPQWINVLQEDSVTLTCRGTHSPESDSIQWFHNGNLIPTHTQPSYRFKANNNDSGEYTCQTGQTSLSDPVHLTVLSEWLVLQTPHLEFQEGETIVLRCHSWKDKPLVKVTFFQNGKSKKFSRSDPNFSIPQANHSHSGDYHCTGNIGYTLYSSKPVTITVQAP
# B1: IL6R-F652/IL6R-L (antibody, human IgG1, kappa)
# heavy: QVQLQESGPGLVKPSETLSLTCAVSGHSISHDHAWSWVRQPPGEGLEWIGFISYSGITNYNPSLQGRVTISRDNSKNTLYLQMNSLRAEDTAVYYCARSLARTTAMDYWGEGTLVTVSSASTKGPSVFPLAPSSKSTSGGTAALGCLVKDYFPEPVTVSWNSGALTSGVHTFPAVLQSSGLYSLSSVVTVPSSSLGTQTYICNVNHKPSNTKVDKKVEPKSCDKTHTCPPCPAPELLGGDSVFLFPPKPKDTLYISRTPEVTCVVVDVSHEDPEVKFNWYVDGVEVHNAKTKPREEQYNSTYRVVSVLTVLHQDWLNGKEYKCKVSNKALPAPIEKTISKAKGQPREPQVYTLPPSRDELTKNQVSLTCLVKGFYPSDIAVEWESNGQPENNYKTTPPVLDSDGSFFLYSKLTVDKSRWQQGNVFSCSVMHEALHYHYTQKSLSLSP
# light: not shown
# notes: IL6R-F11 with P238D; copies: 2 + 2
# How the values were obtained:
# [1] = target: T1, FcγRIIa type R extracellular domain …; assay: SPR, FcγR bound/antibody captured
# Text: (§1) IL6R-L (SEQ ID NO: 22) was utilized as a common antibody L chain for all of the antibodies. These variants were expressed, purified, and expressed by the method of Reference Example 1. […] Interactions of each PD variant with FcγRIIa type R and FcγRIIb were comprehensively evaluated by the method of Reference Example 2.
# (§2) With regard to the results of analyzing the interaction with the respective FcγRs, a figure was produced according to the following method.
# [2] = target: T2, FcγRIIb extracellular domain with …; assay: SPR, FcγR bound/antibody captured
# Text: as §1, §2
binder,measurement,setting,value
B1,relative FcγRIIaR-binding activity,[1],100 % of IL6R-F652/IL6R-L
same,relative FcγRIIb-binding activity,[2],100 % of IL6R-F652/IL6R-L
